Ends that are not written are not given here.

This is an account of results in patent US20190071490A1 (BETH ISRAEL DEACONESS MEDICAL CENTER, published 2019).

Experiment [1] has as its target T1, human α-CGRP fragment 25-37 (human, not fully specified).
T1 peptide: NNFVPTNVGSKAF-NH2
Kind of experiment: Biacore, 37°C, G1 Fab titrated over N-biotinylated peptide on chip. On the procedure:
(§1) All Biacore assays were conducted in HBS-EP running buffer (10 mM HEPES pH 7.4, 150 mM NaCl, 3 mM EDTA, 0.005% v/v polysorbate P20). CGRP surfaces were prepared by diluting the N-biotinylated CGRP to a concentration of less than 0.001 mg/mL into HBS-EP buffer and injecting it across the SA sensor chip using variable contact times. […] Samples were typically injected for 1 minute at 100 μL/min and dissociation times of at least 10 minutes were allowed. […] An entire titration series (typically generated in duplicate) was fit globally to a 1:1 Langmuir binding model using the BIAevaluation program. This returned a unique pair of association and dissociation kinetic rate constants (respectively, kₒₙ and koff) for each binding interaction, whose ratio gave the equilibrium dissociation constant (KD=koff/kₒₙ).
Background: Surface plasmon resonance follows binding to a sensor surface in real time, without labels.

The target in experiment [2] is T2, human α-CGRP K35M (19-37) (human, also: N-terminal biotin when on the chip).
T2 construct: the entry already carries K35M
T2 peptide: SGGVVKNNFVPTNVGSMAF-NH2
The description is as above. On the procedure:
as §1

Experiment [3] concerns the target T3, human α-CGRP N31A (25-37) (human, not fully specified).
T3 construct: the entry already carries N31A
T3 peptide: NNFVPTAVGSKAF-NH2
The description is as above. On the procedure: as §1

Experiment [4] concerns the target T4, human α-CGRP V28A (25-37) (human, not fully specified).
T4 construct: the entry already carries V28A
T4 peptide: NNFAPTNVGSKAF-NH2
The description is as above. On the procedure:
as §1

Experiment [5] addresses T5, human α-CGRP F27A (25-37) (human, not fully specified).
T5 construct: the entry already carries F27A
T5 peptide: NNAVPTNVGSKAF-NH2
Described as above. On the procedure: as §1

Experiment [6] concerns the target T6, human α-CGRP T30A (25-37) (human, not fully specified).
T6 construct: the entry already carries T30A
T6 peptide: NNFVPANVGSKAF-NH2
The experiment is described as above. On the procedure:
as §1

Experiment [7] deals with T7, human α-CGRP S34A (25-37) (human, not fully specified).
T7 construct: the entry already carries S34A
T7 peptide: NNFVPTNVGAKAF-NH2
The description is as above. On the procedure: as §1

Experiment [8] deals with T8, human α-CGRP K35Q (19-37) (human, not fully specified).
T8 construct: the entry already carries K35Q
T8 peptide: SGGVVKNNFVPTNVGSQAF-NH2
Described as above. On the procedure:
as §1

For experiment [9], the target named is T9, human α-CGRP G33A (25-37) (human, not fully specified).
T9 construct: the entry already carries G33A
T9 peptide: NNFVPTNVASKAF-NH2
The description is as above. On the procedure: as §1

The next experiment has as its target T10, human α-CGRP 25-38A (human, not fully specified).
T10 construct: residues 25-37 with an extra alanine added at the C-terminus (in the entry); also called 38A (25-38A)
T10 peptide: NNFVPTNVGSKAFA-NH2
The description is as above. On the procedure: as §1

The target of experiment [10] is T11, human α-CGRP V32A (25-37) (human, not fully specified).
T11 construct: the entry already carries V32A
T11 peptide: NNFVPTNAGSKAF-NH2
The description is as above. On the procedure:
as §1

In experiment [11] the target is T12, human α-CGRP fragment 19-37 (human, not fully specified).
T12 peptide: SGGVVKNNFVPTNVGSKAF-NH2
Described as above. On the procedure:
as §1

A further experiment deals with T13, human α-CGRP 1-37 (WT) (human, C-terminal amide; N-terminal biotin when captured on the SA chip; 125I-labelled in the radioligand assay).
T13 construct: also called α-human
T13 peptide: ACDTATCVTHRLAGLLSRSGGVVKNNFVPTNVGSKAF
The description is as above. On the procedure:
as §1

The target of experiment [12] is T14, human α-CGRP K35A (19-37) (human, also: N-terminal biotin when on the chip).
T14 construct: the entry already carries K35A
T14 peptide: SGGVVKNNFVPTNVGSAAF-NH2
The experiment is described as above. On the procedure:
as §1

Experiment [13] concerns the target T15, human α-CGRP K35E (19-37) (human, also: N-terminal biotin when on the chip).
T15 construct: the entry already carries K35E
T15 peptide: SGGVVKNNFVPTNVGSEAF-NH2
Described as above. On the procedure:
as §1

Experiment [14] addresses T16, human α-CGRP P29A (25-37) (human, not fully specified).
T16 construct: the entry already carries P29A
T16 peptide: NNFVATNVGSKAF-NH2
The description is as above. On the procedure:
as §1

Experiment [15] has as its target T17, human α-CGRP F37A (25-37) (human, not fully specified).
T17 construct: the entry already carries F37A
T17 peptide: NNFVPTNVGSKAA-NH2
Described as above. On the procedure: as §1

The target of another experiment is T18, rat β-CGRP (1-37) (rat, C-terminal amide; N-terminal biotin when captured on the SA chip).
T18 construct: also called rat β (1-37)
T18 peptide: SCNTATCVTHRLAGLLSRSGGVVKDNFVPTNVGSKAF
Description: Biacore, 37°C, Fab over N-biotinylated CGRP on SA chip, 20-min dissociation. On the procedure: as §1, with “Biacore assay for affinity determination. […] All” for “All”

A further experiment concerns the target T19, human β-CGRP (1-37) (human, C-terminal amide; N-terminal biotin when captured on the SA chip).
T19 construct: also called human β (1-37)
T19 peptide: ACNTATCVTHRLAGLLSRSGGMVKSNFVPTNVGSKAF
Described as above. On the procedure:
as §1, with “Biacore assay for affinity determination. […] All” for “All”

B1: antibody G1 Fab fragment (Fab, V domains shown)
VH: EVQLVESGGGLVQPGGSLRLSCAASGFTFSNYWISWVRQAPGKGLEWVAEIRSESDASATHYAEAVKGRFTISRDNAKNSLYLQMNSLRAEDTAVYYCLAYFDYGLAIQNYWGQGTLVTVSS
VL: EIVLTQSPATLSLSPGERATLSCKASKRVTTYVSWYQQKPGQAPRLLIYGASNRYLGIPARFSGSGSGTDFTLTISSLEPEDFAVYYCSQSYNYPYTFGQGTKLEIK
In general, Kd refers to the free concentration of one partner at which half of the binding sites on the other are occupied at equilibrium, for simple one-to-one binding. With B1, the Kd was 280 pM in experiment [1]; 510 pM in experiment [2]; 530 pM in experiment [3]; 280 pM in experiment [4]; 380 pM in experiment [5]; 470 pM in experiment [6]. Also, the dissociation constant (Kd) in [7] came out at 3040 pM; in [8], 1380 pM; in experiment [9] it was 141000 pM; in experiment [10], 1710 pM; in [11], 160 pM; with human α-CGRP 1-37 (WT) it was 160 pM. Further, the dissociation constant Kd was determined as 1330 pM in experiment [12]; 9730 pM in [13]; 790 pM in [14]; 95000 pM in experiment [15]; 152 pM with rat β-CGRP (1-37); 155 pM in the experiment with human β-CGRP (1-37). Further, the binding result with human α-CGRP 25-38A was “no binding”.
